A protein production outcome set (Wang et al. 2014)

Experiment: label from the status in PepcDB records
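Also: failed if final PepcDB status was selected cloned or expressed and not failed if soluble or beyond.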

Sequence | protein production
MPMSFSLTQMILISAAYLAVLFGVAWISERGMIPRSIIRHPLTYTLSLGVYASAWAFYGTVGLAYQYGYGFLSSYLGVSGAFLLAPVLLYPILKITRTYQLSSLADLFAFRFRSTWAGALTTIFMLIGVLPLLALQIQAVADSIGILTHEPVQHRVALSFCALITLFTIFFGSRHIATREKHEGLVFAIAFESVIKLIAIGGVGLYALYGVFDGPQQLELWLLQNQTALAALHTPLQEGPWRTLLLVFFASAIVMPHMYHMTFTENLNPRALVSASWGLPLFLLLMSLAVPLILWAGLKLGATTNPEYFTLGIGIAANSPALALLAYVGGLSAASGLIIVTTLALSGMALNHLVLPLYQPPAEGNIYRWLKWTRRALIVAIIMAGYAFYLLLGAEQDLANLGIVAFVATLQFLPGVLSVLYWPTANRRGFIAGLLAGILVWLVTMLLPLIGNLQGFYIPLLNMIYVLDDTSWHMAAIASLAANVLMFTLISLFTNASTEEASAAEACAVDNVRRPQRRELHAASPQEFATQLAKPLGAKAAQKEVEQALRDLYLPFDERRPYALRRLRDRIEANLSGLMGPSVAQDMVETFLPYKAGGENYVTEDIHFIESRLEDYHSRLTGLAAELDALRRYHRQTLQELPMGVCSLAKDQEILMWNKAMEELTGIPAQHVVGSRLSTITNPWKDLLQGFINLPDEHLHKQHLALDGQTRWLNLHKAAIDEPLAPGNSGLVLLVEDLTETQTLEDKLVHSERLASIGRLAAGVAHEIGNPITGIACLAQNLREEREEDGELTEISEQILEQTKRISRIVQSLMSFAHAGSHQHNDEAVCLAEVAQDAIGLLALNRRNFEVQFFNLCDPDHWVDGDPQRLAQVLINLLSNARDASPPGSAVRVKSEAFEHTVDLIVEDEGSGIPKNIMDRLFEPFFTTKDPGEGTGLGLALVYSIVEEHYGQITIDSPADPQSQRGTRIRVTLPRHVEATSAVN | failed
EQEDRALRSFKLSVTVDPKYHPKIIGRKGAVITQIRLEHDVNIQFPDKDDGNQPQDQITITGYEKNTEAARDAILRIVGELEQM | not failed
MSLAEVNPMSKPLVRWPINPLRTAVIVVDMQKVFCEPTGALYVKSTADIVQPIQKLLQAARAAQVMVIYLRHIVRGDGSDTGRMRDLYPNVDQILARHDPDVEVIEALAPQSDDVIVDKLFYSGFHNTDLDTVLRARDVDTIIVCGTVTNVCCETTIRDGVHREYKVIALSDANAAMDYPDVGFGAVSAADVQRISLTTIAYEFGEVTTTAEVIRRIESAYPHGREGHHHHHH | not failed
MIPGEILAVLVVVIPGVVNITYRLGIKKATIVGASADLVVAGLMYFLRPQTGFFYIQDSTMLFIIMVLSVYLLSAIYSTRYLKGIEVMGIREPTYYLLLNLFTASMLFSLEVNNYGLMWVGIEATTISSALLLITEKSETSLEATWRYIIIVSAGVTFAFISIILIYYTLGTLSVSTAIGSHVHSRIMVLAVSLALIGFGTKVGVFPVHTWLPDAHSEAPSPVSAMFSGVLLPTALYVLYRVYEIEPVRGLYVWFAVVSIVAASIFMGYQARYKRMFAYSTMENMNLALLGIAVGGSLGFTGALLLLLSHSFGKAGAFYSSGNILRFTGKKEIAEINGMHTSMPYTSTSLLMSSLAVTGAPPFGTFFGEFLILSGVLSLHMYVQFIIVIVFLAAAFISMNYNVTGMIFNGNCPNIEKDRLMPALSIFSSVIPLFIGIFFLVVYNEIL | failed
MVIRELNNNWQSHAFDGYEVNWTEQQQTVSCLHTLVYPLAQGQGLHVTGISWNSTGSVLACAYGRLDDGDWSTLKSYVCTWNLDRQGLNPQQPSVVVEVPSAVMCLAFHPTQPSHIAGGLYSGEVLVWDMSRPEDPLLWRTGLTDDTHTDPVYQVLWLPEPRHSHRFQVLSAATDGKVLLWRGSGAGQLRLTKGFALAVQQLPRSTKLKKPPRGETEVGVTSVAFSSFDSSLFVLGTEGGFPLKCSLASEVAALTRMPSSVPLRAPVQFTFSPHGGPVYSVSCSPFHRNLFLSAGTDGHVHLYSMLQAQPLTSLQLSHKYLFAVRWSPVRPLVFAAASGEGDVQLFDLQKSSQKPTVSITQTQDGSPVYCLEFNSQQTQLLAAGDAKGMVKVWQLSTAFTEQGPREVEDLDQLEAEITT | failed
LRGTHSQLRCVLNAATQVAIIATDLRGVISTFNAGAEQMLGYSSSEAVGHLTLESLHLPEELESWAQSLTQRYGKAIPVSQAMLVEEGMAGGHEAREWTLVRRDGSHLQVNMLATPVLDDQGLWIGHLAICIDITERKRVHEA | failed
MARNKGWVGATCCFLLFTVVFLSQKIEVSEVAVNDGLRGSPGMLLFLLPGMVACFLSARGRLLYPLFGALAAMPVCLLLLHLWNTPMRSFWQELAYVMSAVFWCVLGAMGVLCLRSLYRRYLR | not failed
MFAHQNASFPPRPEGRGGKEAVFRLTVFCIITFSSLICEAMKRAYKYRFYPTTEQAELLAQTFGCVRFVYNSILRWRTDAYYERKEKIGYLQANARLTALKKEPEFAWLNDVSCVPLQQSLRHQQTAFANFFAGRAAYPAFKSKRHKQAAEFTASAFKYRDGKLYMAKNKIPLDVRWSRPLPSVPSTVTISKDAAGRYFVSCLCEFEPASLPITSSMVGIDVGLKDLFVTDTGFRSGNPRHTAKYAARLALLQRRLSKKAKGSKNRAKAHLKVARLHAKIADCRLDALHKATRKLINDNQVVCVESLKVRNMIRNPSLSKAIADASWGELVRQLRYKGEWAGRSVVAIDQFFPSSKRCSCCGFIMKKMPLDVRKWQCPECGTDHDRDVNAARNIKAAGLAVLAHGEPVNPESLKAALEHHHHHH | failed
MSQVSIIIPTLNEAASLGRTLRQLTLLNPPAKEVIVVDGGSEDETIAIAKQNFESFRQATGVQVIFCERRGRSVQMNYGALSATGDILCFLHADTWVPDDLVAVIEKTLAETKVSCGGFISLMTGSQTTRWGISLHNYLKTYYAPLLFKPHLFFQGLRLLFGDQVMFCRRNDFWDCGGFNEELPIMEDGDLCLKLVQKGRIALVNRIVQSSDRRVARWGSWKATAIYLYIGVLWGIGVDANYLKQFYQDIRLEHHHHHH | not failed
MEFRLLHISDLHMIPGQETKKAWVSALDSLSPDLVINTGDNLSDEKAVPDVLRALGPLMNRPGAFVFGTNDYWAPRPVNPFGYLFGKKREVSHIDLPWRAMRAAFIEHGWQDANQKRLEFQVGSVRLAISGVDDPHHDLDDYTEIAGAPNVDADLSIALLHAPEPRVLAQFEADGYQLSLSGHTHGGQLEHHHHHH | failed
MRVEDVMVTDVDTIDITASLEDVLRNYVENAKGSSVVVKEGVRVGIVTTWDVLEAIAEGDDLAEVKVWEVMERDLVTISPRATIKEAAEKMVKNVVWRLLVEEDDEIIGVISATDILRAKMAKRY | not failed
MWAFPERFEGRHVRLEPLALAHLPAFLRHYDPEVYRFLSRAPVAPTEEALRAHLEGLLGEPGRVNWAILFGKEVAGRISVIAPEPEHAKLELGTMLFKPFWGSPANKEAKYLLLRHAFEVLRAERVQFKVDLRNERSQRALEALGAVREGVLRKNRRLPDGAFRDDVVYSVLKEEWPGVKARLEARLYGASGN | not failed
MSLDMKEHPDAEVQKNQVLTLEDWKEKWVTRHISFHQEQGHQLLKKHLDTFLKGQSGLRVFFPLCGKAIEMKWFADRGHTVVGVEISEIGIREFFAEQNLSYTEEPLAEIAGAKVFKSSSGSISLYCCSIFDLPRANIGKFDRIWDRGALVAINPGDHDRYADIILSLLRKEFQYLVAVLSYDPTKHAGPPFYVPSAELKRLFGTKCSMQCLEEVDALEERHKAWGLDYLFEKLYLLTEK | not failed
MKELSKSDRTRQFIIESTAPVFNVKGLAGTSLTDLTEATNLTKGSIYGNFENKEAVAIAAFDYNWGHVKSVLTAKVQACNTYKEMLLVYSSMYNDADGSLFPVGGCPLLNTTIEADDTHDALRKKAGEAILSWKKNLVTIIKKGIQAKEFRPDTDVTKIAFSMIALVEGAILIHRATKNRAYSDYVFESLEDLIAGIEVKKK | not failed
NPVILADLDDTLFQTRRKMVDELALAPYKTGALDRSLAPRSFMTQEQAMLVDWMLEHADLIPVTARGTEEMSRVTIPFHSWAITTHGAVVLTPEKVADEQWQHHITQSLTPYKQPLLRLQQSITQLMAERNIDGWARINYEYDDLPIYLVMKHNDSARLDELYAIGDEIEKIFSTKGFYIHRNSNNIAWLPEPIEKGKAVTYLLNKLKAERGVFPVIGFGDSLSDHRFMKLCN | not failed
MSIDVHPNNYAYQTNEPYKNFEAEDKLIGHLQDFVDGHQEDVKRIGSKMSEMKAKFEEKFDDLTNRLENMEGALVEINNALLNHQDDIQDQYTRIVNVGLVVDTVESHLDWKIEELEKKLNNSNEFSE | not failed
MPPRRRPHAGLTLPRILILNLLKALATISSLTMLSRITGLVREILIARAFGASDMTDAFNVAFRIPNLLRRIFAEGAFSQAFVPILNEYHGKRGHDETMSLVDAVATVMTWVLAAVSLLGVIGAPIVMTVVATGFRGDSETYNAAVFMTRVMFPYIGLISMVALASGILNTWRNFAVPAFTPVLLNLCLIVAALFVGPHMSQPIYAQAWGVLVGGVLQLVIQVPAMRKLGVMPRVSLNLRAAWANPGVRRVITQMLPALLAVSVAQISLIINTNIASRLGAGAVSYITYADRLMEFPTALLGVALGTILLPSLSRASAEDNREEYSGLLDWGLRLTFLLALPCAAGLMLFGTPITSVLFHYGRFDAHAVEMTQQALTTYGVGLLALILIKILTPGFYARQDIRTPVKIAILVLIITQASNYVFVPMLQHAGLPLSISFGATVNALLLFYGLRRRGYYHPAPGWGLFLLRLVAAMLILSGMLLWFARNFDWIALGATPGLRIALMGACLVLAATVYFGTLWLMGLRYSSFRRRAG | failed
MSLISFAPHSGVWLLTTPHTSYALRIDASGAPCHLAWGPRLTLAAAEELAVPEPPAASSFEGRPSVGEELPVDGGVRYGPPSLQVRFADGSRAFEWQPTGHRVHESADGAHELVLFFRDRRYPLQVALHYRVRADTDVIERWTVVRNGGDEPVTLLRADSAAWTLPPLADYRLSHVTGQWSAESRLRRDRLPYGETVLTSRRGITSHHTNPWLMVDSGEATEDHGRVWSAALAWSGSWRITTQRTPDGRTGFTGGVGHDGTGVPLTPGEEFTAPAFAGLFTADGFGAASRAWHAYTLAHVLPHPDEPVPVLYNSWEATGFDVDEVGQKALAERAAALGVELYVVDDGWFGGRRSDRAGLGDWTPAPDRFPDGLGPLADRVRELGMRFGLWVEPEMVNPDSDLYRAHPDWVLHLPDRSRSELRNQLVLNFARRDVADWAYGWLTELVGAHRIDFLKWDMNRAFSEAGWPGQQDGADRLGTQYVRHLYGVIDRLRADHPGLRIESCSGGGGRIDLGILGRTDQTWASDNTDAADRLWIQHGFSQIYPARTMGCWVTDAPNQFTGRGLPLRFRFHAAMAGALGIGGDLARWSEEELREGAALVTEYKKVRHLVQHGRLDRLSPPSGQSPAVVQYTSADGSESLVLAWRGVPRPGDADLPVRLRALTPAARYRDSRTGTVHHASVLGDYGLRLDLPAGDWSSVAMHLVREPEAV | failed
MSFFKLKENNTSFKTEVIAGLTTFLAMVYIIPVNSSIVGNTGMPIEALITATALITIVASAFNAFFANTPVAMSVGMGLNAYFTFAVCLGQNIAWQSALGAVFISSIIFLILSFTHFRLWVIRNIPKDLRLAICAGIGCFIAFLGLSQMGVIMHNKDTLVSIGNFKSPHVLFGIFTLALIIFFWAIKLLGAFILGVLASSIIAWIFHLDNASFPVQIFSWPNFSMENGLGAIFLQLDIKSALNITMIPIILTFFITQLFDSIGTITGVGERGKIFDDPKNGEKKLSKTLMADATGSALGAMTGTSTVTAFVESTTGVESGGRTGLTALVVAICFAFTLFLLPLFKAIPANAIYPVLVMVGILMFMEVKNIDFKDSAIAVASFFTIIMMPFTYSITTGFAFGFLSYLLVRIFKREWDKINLGIIVLSLLSLGNFLLMALQ | failed
MDFSDLDYSDAGDSGWTMYLGHSSSVSLHHFDYHNGETKQEHDEDSSMVSDASSGPPYYCEETVHEDHLQQNTQYWCKSKSKNKNKNKKKVHEEQGYSERFNSSFDDTASSLEKVNSGFLQQAFPVDKLALDNQGGDNQRKRRG | failed
